Results on 54 variants are retold here after the RNAGym collection of RNA variant scans (doi:10.7554/elife.80360).

First the molecules themselves.
B1: Twister Ribozyme (parent)
chain: AACACUGCCAAUGCCGGUCCCAAGCCCGGAUAAAAGUGGAGGGGGCGG

The variants in this data set derive from B1. Kind of data set: self-cleavage, relative activity (ratio to wild type); higher = more cleavage; co-transcriptional.
In the case of AACACUGCCAAUGCCGGUCUCAAGCCCGGAUAAAAGUCGAGGGGGCGG, the self-cleavage turned out to be 0.841. The figure for AACACUGCAAAUGCCGGUCCGAAGCCCGGAUAAAAGUGGAGGGGGCGG is 0.164; for AACACUACCAAUGCCGGUCCCAAGCCCGGAUAAAAGUGGAGAGGGCGG it is 0.176. For AACACUGCCAAUGACGGUCGCAAGCCCGGAUAAAAGUGGAGGGGGCGG, the self-cleavage was 0.126. Regarding AACACUGCCAAUGCCGGUCCCAAGCCCGGAUAAAAGUGGACGAGGCGG, the self-cleavage was 0.141. Regarding AACACUGCCAAUGCCGGUCCCAACCCCGGAUAAAGGUGGAGGGGGCGG, the self-cleavage was determined as 0.0669. Then AACACUGCCAUUGCCGGUCCCAAGCCCGGAUAAAACUGGAGGGGGCGG, with 0.573; and AACACUGCCAAUGCCGGUCCCAAGCACGGAUAAAAGUGGAGGGGACGG, with 0.258; and AACACUGCCAAUGACGGUCCCAAGCCCGGAUACAAGUGGAGGGGGCGG, with 0.884.

Take AACACUGCCAGUGCCAGUCCCAAGCCCGGAUAAAAGUGGAGGGGGCGG: the self-cleavage turned out to be 0.627. Regarding AACACUGCCAAUGCCGGUCCCAAGACCGGAUCAAAGUGGAGGGGGCGG, the self-cleavage was determined as 0.0985. AACACUGCCAUUGCCGGUCCCAAGCCCGGAUAAAAGUGGAGUGGGCGG: the self-cleavage came to 0.33.

In the case of AACACUGCCAAUUCCGGUCCCAAGCCCGGAUAAAAGUGGAGGGGGUGG, the self-cleavage came out at 0.586. AACACUGCCAAUGGCGGUCCCAAGCCCGGAUAAAAGUGGAGGGGUCGG: the self-cleavage was 0.101. Regarding AACUCUGCCAAUGCCGGUCCCAAGCCCGGAUAAUAGUGGAGGGGGCGG, the self-cleavage came to 0.068. Take AACACUGCCAAUGCCGGUCCCGAGCCCGGAUAAAAGUUGAGGGGGCGG: the self-cleavage amounted to 0.122. With ACCACUGCCAAUGCCGUUCCCAAGCCCGGAUAAAAGUGGAGGGGGCGG, the self-cleavage worked out at 0.0456. Then AACACUGCCAAUGCCGGUCCCAAGCCCGGAUAAAAGUCGCGGGGGCGG, with 0.134; and AACGCUGCCAAAGCCGGUCCCAAGCCCGGAUAAAAGUGGAGGGGGCGG, with 1.17. On to AACACUGCCAAUGCCGGUCCCAAGCCCGGAUUAAAGUGGAGGGUGCGG, for which the self-cleavage is 0.885. Regarding AACACUGCCAAUGCGGGUCCCAAGCGCGGAUAAAAGUGGAGGGGGCGG, the self-cleavage was determined as 0.0537. The figure for AAUACUGCCAAUUCCGGUCCCAAGCCCGGAUAAAAGUGGAGGGGGCGG is 0.113; for AACACUGCCAAAGCCGGUCCCAACCCCGGAUAAAAGUGGAGGGGGCGG it is 0.097; for AACACUGCCAAUGCCGGGCCCAAGCCCGGAUAAAAGUGCAGGGGGCGG it is 0.0419. Regarding AACACUGCCAAUGCCGGUCCCAAGCCCGGAUAAACGUGGAGGGAGCGG, the self-cleavage came to 0.87. The figure for AACCAUGCCAAUGCCGGUCCCAAGCCCGGAUAAAAGUGGAGGGGGCGG is 0.0937; for AACACUGCCAAUGCCGGUCCCAAGCCAGGAUAAAAGUGGAGGGGGCGG it is 0.672.

Turning to AACACUGCCAAUGCAGGUCCCAAGCCCGGAUAAAAGUGGGGGGGGCGG, the self-cleavage stood at 0.107.

Consider AACACUGCCAAUGCCGGUCCCAAGUCCGGAUAAAAGUGGAGGGGGCGC, for which the self-cleavage stood at 0.881. For the variant AACAAUGCCAAUGCCGGUCCCAAGCCCGGGUAAAAGUGGAGGGGGCGG, the self-cleavage was 0.491. As for AACACUGCCAAUGCCGGUCCCAAGCCAGGAUUAAAGUGGAGGGGGCGG, the self-cleavage was found to be 0.446.

Regarding AACACUGCCAAUGCCGAUCCCAAGCCCGGAUAAAAUUGGAGGGGGCGG, the self-cleavage is 0.108. The figure for AACACUGCCAAUGCCGGUCCCAAGCCCGAAUAAAAGUGGAGGCGGCGG is 0.163; for AACACUGCCAAUGCCGGUCCCAAGCCCUGAUAAAAGUGGAGGGUGCGG it is 0.879. In the case of AACACUGCCUAUGCCGGUCCCAAGCCCGGAUAAAAGUGGAGGGGCCGG, the self-cleavage amounted to 0.707. The figure for CUCACUGCCAAUGCCGGUCCCAAGCCCGGAUAAAAGUGGAGGGGGCGG is 0.346; for AACACUGCCAAUGCCGGUCCCAAGCCCGGAUACAAGUGGAGGGUGCGG it is 0.97; for UACACUGCCAAUGCCGGUCCGAAGCCCGGAUAAAAGUGGAGGGGGCGG it is 0.0652. The figure for AACACUGCCUAUGCCGGUCCCAAGCCCGGAUAAAAGUGGAGGGGGGGG is 0.857.

In the case of AACACUGCCAAUGCCGGUCCCAAGCCCGGAUAAAAGUGGGGGGGGCGA, the self-cleavage stood at 0.193. As for AACACUGCCAAUGCCGGUGCCAAGCCCGGAUAAAAGUGGAGGGGGCGC, the self-cleavage was 0.23.

AACACUGCCAGUGCCGGUCCCAAGCCCGGAUAAAAGUGGACGGGGCGG: the self-cleavage amounted to 0.313. For AACACUGCCAAUGCGGGUCGCAAGCCCGGAUAAAAGUGGAGGGGGCGG, the self-cleavage was 0.0898. As for AACACUGCCAAUGCCGGUCCCAACCUCGGAUAAAAGUGGAGGGGGCGG, the self-cleavage was determined as 0.126. Take AACACUGCCAAUGCCGUUUCCAAGCCCGGAUAAAAGUGGAGGGGGCGG: the self-cleavage turned out to be 0.143. In the case of GACACUGCCAAUGCCGGUCCCAGGCCCGGAUAAAAGUGGAGGGGGCGG, the self-cleavage is 0.213. For the variant AACACUGCCACUGCCGGUCCGAAGCCCGGAUAAAAGUGGAGGGGGCGG, the self-cleavage is 0.118. Regarding AACAUUGCCAAUGCCGGUCCCAAGCCCGGAUAAAAGUGGAGGGGCCGG, the self-cleavage is 0.239. Regarding AACACUGCCAAUGCCGGUCCCAAGCCCGGAUAAAACUGGAGCGGGCGG, the self-cleavage worked out at 0.189. On to AACACUGCCAAUGCCGGUCCCAAUCCCGGAUAACAGUGGAGGGGGCGG, for which the self-cleavage turned out to be 0.101. With AACACUGCCAAUCCCGGUCCCAAGCCCGGAGAAAAGUGGAGGGGGCGG, the self-cleavage turned out to be 0.585. Take AACACUGCCAAGGCCGGUCCCAAGCCCGGAUAAAAGUGUAGGGGGCGG: the self-cleavage is 0.247. AACACUGCCAAUGCCGGUCCCAAGCACGGAUAAAAGUGGAGGUGGCGG: the self-cleavage worked out at 0.11. As to AACACUGCGAAUGGCGGUCCCAAGCCCGGAUAAAAGUGGAGGGGGCGG, the self-cleavage is 0.0866.
